Test results as given in PMC6524969, “A nanobody-based molecular toolkit provides new mechanistic insight into clathrin-coat initiation” (eLife, 2019).
Values belong to the binder of their own block, whether it stands above or below them.

Experiments:
GST-EPS15R (1-365) = molecular target: T1, GST-EPS15R (1-365) (Homo sapiens, UniProt Q9UBC2); assay: pull-down; GST fusion (50 μg, or increasing amounts) immobilised on glutathione-Sepharose; Nb in clarified E. coli periplasmic extract adjusted to 125 mM sodium chloride; 4°C, 60 min; supernatant and pellet on Coomassie-stained gels; conditions: one partner purified
T1 construct: Epidermal growth factor receptor substrate 15R (EPS15R, gene EPS15L1), H. sapiens, residues 1-365 (stop T366*), in pGEX-5X-1; also called EPS15R EH1R-3R; source: E. coli BL21 codon plus RIL, purified (glutathione-Sepharose)

[1] = molecular target: T2, EPS15R in K-562 cell lysate (human (endogenous in K-562), UniProt Q9UBC2); assay: pull-down; called immunoprecipitation; purified His6-tagged Nb E_142 bound to Ni-NTA-agarose; K-562 cell lysate or rat brain cytosol; immunoblots; conditions: one partner purified
T2 construct: Epidermal growth factor receptor substrate 15R, endogenous in K-562 cells

[2] = molecular target: T3, native Eps15 in rat brain cytosol (Rattus norvegicus (brain cytosol, …, UniProt A0A8I5YC99)); assay: as above; conditions: one partner purified
T3 construct: Eps15, endogenous in rat brain cytosol; source: endogenous, rat brain cytosol

GST-EPS15 (1-314) [3] = molecular target: T4, GST-EPS15 (1-314) (human, UniProt P42566); assay: pull-down; quantitative titration; Nb E_142 fixed at 2 μM, immobilised GST-EPS15 (1-109) 0.5-20 μM or (1-314) 0.25-10 μM; PBS with 100 μg/ml BSA, 4°C, 60 min, 400 μl; Nb band in the supernatant quantified; apparent KD (half-maximal binding); conditions: both partners purified
T4 construct: stop codon at 315 (S315*) in pGEX-5X-1; Printed molecular weight 60,924.7; also called GST-EPS15 EH1-3; source: E. coli BL21 codon plus RIL, purified (glutathione-Sepharose); not shown: GST, N-terminal, kept

GST-EPS15 (1-109) = molecular target: T5, GST-EPS15 (1-109) (Homo sapiens, UniProt P42566); assay: as above; conditions: both partners purified
T5 construct: stop codon L110* in pGEX-5X-1; Printed molecular weight 38,271.3; also called EH1; source: E. coli BL21 codon plus RIL, purified (glutathione-Sepharose); not shown: GST, N-terminal, kept

[4] = molecular target: T6, endogenous EPS15 in HeLa cells (Homo sapiens, UniProt P42566); assay: immunostaining of cells or tissue; relocalisation in cells: Nb E_142 fusion tethered to endosomes (GFP-FYVE2) or mitochondria (Akap1) in transfected HeLa cells; endogenous EPS15 stained with antibodies, confocal microscopy; controls without the Nb module; conditions: partners not purified
T6 construct: Epidermal growth factor receptor substrate 15, endogenous in HeLa cells, stained with anti-EPS15 antibodies; source: endogenous, HeLa SS6 and HeLa clone #40 cells

GST-EPS15 (1-314) [5] = molecular target: T4, GST-EPS15 (1-314); assay: pull-down; GST fusion (50 μg, or increasing amounts) immobilised on glutathione-Sepharose; Nb in clarified E. coli periplasmic extract adjusted to 125 mM sodium chloride; 4°C, 60 min; supernatant and pellet on Coomassie-stained gels; conditions: one partner purified

T4 sequence (P42566 1-314): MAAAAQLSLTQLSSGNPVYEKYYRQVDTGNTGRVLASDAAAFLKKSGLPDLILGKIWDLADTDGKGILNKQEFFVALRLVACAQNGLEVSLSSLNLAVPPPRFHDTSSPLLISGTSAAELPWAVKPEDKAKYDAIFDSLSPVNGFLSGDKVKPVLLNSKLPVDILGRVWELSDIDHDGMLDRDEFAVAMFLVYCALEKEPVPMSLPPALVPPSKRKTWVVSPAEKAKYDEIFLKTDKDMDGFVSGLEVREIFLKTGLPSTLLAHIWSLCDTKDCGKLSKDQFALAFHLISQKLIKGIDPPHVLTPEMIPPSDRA
T2 sequence (Q9UBC2 whole entry): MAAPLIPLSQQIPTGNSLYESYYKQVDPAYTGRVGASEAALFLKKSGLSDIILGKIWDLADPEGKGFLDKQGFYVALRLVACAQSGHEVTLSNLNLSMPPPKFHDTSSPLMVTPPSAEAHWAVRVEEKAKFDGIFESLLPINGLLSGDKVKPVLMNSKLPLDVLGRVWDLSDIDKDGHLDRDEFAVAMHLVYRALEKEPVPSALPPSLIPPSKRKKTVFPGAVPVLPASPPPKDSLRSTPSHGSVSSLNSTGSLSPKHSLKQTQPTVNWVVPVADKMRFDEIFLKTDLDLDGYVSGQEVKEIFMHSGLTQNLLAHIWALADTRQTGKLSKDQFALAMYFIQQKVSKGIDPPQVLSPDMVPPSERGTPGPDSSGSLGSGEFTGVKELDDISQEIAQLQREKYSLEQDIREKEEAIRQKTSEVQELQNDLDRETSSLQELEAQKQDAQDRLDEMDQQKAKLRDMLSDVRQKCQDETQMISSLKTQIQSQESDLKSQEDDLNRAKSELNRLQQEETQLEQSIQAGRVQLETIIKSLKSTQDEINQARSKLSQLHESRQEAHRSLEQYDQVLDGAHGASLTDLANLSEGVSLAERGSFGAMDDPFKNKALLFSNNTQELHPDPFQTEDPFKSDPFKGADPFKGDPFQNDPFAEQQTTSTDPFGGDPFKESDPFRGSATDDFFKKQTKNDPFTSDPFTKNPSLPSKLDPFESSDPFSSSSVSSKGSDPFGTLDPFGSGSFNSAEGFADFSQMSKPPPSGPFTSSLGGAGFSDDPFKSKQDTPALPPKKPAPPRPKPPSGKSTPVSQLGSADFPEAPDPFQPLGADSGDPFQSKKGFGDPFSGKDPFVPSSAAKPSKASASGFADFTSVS
T1 sequence (Q9UBC2 1-365): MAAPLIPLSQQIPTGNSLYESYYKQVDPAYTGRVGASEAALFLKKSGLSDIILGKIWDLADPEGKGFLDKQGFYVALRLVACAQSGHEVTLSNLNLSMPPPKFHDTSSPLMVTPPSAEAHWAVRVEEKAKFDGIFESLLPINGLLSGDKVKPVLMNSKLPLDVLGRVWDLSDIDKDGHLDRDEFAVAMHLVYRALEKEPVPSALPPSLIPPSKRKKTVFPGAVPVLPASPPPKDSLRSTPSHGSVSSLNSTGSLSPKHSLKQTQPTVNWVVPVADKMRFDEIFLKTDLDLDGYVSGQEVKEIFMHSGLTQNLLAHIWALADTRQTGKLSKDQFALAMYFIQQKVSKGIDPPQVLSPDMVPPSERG
T5 sequence (P42566 1-109): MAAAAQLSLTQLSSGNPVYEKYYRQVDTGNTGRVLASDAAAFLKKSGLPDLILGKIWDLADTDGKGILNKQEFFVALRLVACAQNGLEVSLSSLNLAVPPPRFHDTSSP
T6 sequence (P42566 whole entry, the tested form may be a part): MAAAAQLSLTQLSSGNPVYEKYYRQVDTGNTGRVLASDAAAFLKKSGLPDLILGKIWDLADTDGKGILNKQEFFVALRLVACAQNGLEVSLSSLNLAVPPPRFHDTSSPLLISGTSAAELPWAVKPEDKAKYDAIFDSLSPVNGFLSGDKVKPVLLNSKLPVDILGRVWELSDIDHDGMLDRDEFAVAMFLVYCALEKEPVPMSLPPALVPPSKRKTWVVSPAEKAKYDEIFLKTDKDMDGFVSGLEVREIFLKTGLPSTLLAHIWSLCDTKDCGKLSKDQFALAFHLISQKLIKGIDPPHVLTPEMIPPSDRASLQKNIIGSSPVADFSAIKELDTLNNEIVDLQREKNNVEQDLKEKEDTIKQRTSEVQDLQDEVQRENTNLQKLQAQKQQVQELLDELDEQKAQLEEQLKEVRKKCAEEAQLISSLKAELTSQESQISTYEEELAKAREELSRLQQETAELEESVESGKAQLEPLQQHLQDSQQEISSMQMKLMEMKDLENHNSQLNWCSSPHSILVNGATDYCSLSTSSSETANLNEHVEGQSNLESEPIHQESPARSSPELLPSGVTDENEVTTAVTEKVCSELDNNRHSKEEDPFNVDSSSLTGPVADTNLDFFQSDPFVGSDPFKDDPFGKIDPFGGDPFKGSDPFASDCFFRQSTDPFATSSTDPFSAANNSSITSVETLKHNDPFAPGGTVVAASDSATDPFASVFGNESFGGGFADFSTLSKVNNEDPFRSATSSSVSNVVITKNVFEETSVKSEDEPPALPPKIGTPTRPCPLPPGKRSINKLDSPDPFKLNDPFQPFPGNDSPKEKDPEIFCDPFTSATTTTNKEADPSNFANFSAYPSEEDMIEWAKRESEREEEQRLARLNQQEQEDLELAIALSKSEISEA

binding result (GST-EPS15R (1-365)): binds | binding result [1]: binds | binding result [2]: binds | Kd (GST-EPS15 (1-314) [3]): ~2 µM | Kd (GST-EPS15 (1-109)): ~3 µM
B1: Nb E_142 (VHH)
VHH: QVQLQESGGGLVQAGGSLRLSCAASGFISSSSTMGWYRPAPGKQRELVASISSGGTTNYAESVKGRFTISRDNAKNTVYLQMDSLKPEDTAVYYCNMKSMNPFRRYDVWGQGTQVTVSS
notes: NPF(R) tripeptide in CDR3; Printed molecular weight of Nb E_142-His6: 13,683.2; also called Nb E_142-His6; His6-tagged Nb E_142; source: E. coli XL1-Blue (pHEN6c), periplasmic extract; also purified from the periplasmic extract (Ni-NTA-agarose, Sephacryl S-100); not shown: His6, C-terminal, kept

binding result [4]: binds
B2: GFP-FYVE2-desNb E_142 (VHH)
VHH: QVQLQESGGGLVQAGGSLRLSCAASGFISSSSTMGWYRPAPGKQRELVASISSGGTTNYAESVKGRFTIRRDNAKNTVYLQMDSLKPEDTAVYYYNMKSMNPFRRYDVWGQGTQVTVSF
notes: Four glycine residues between the second FYVE domain and the Nb; also called GFP-FYVE2-dNb E_142; 3maj conditionally destabilized Nb E_142; source: HeLa SS6, transiently transfected, in cells; not shown: GFP, N-terminal, kept; tandem FYVE domain (FYVE2), N-terminal, kept

binding result (GST-EPS15 (1-314) [5]): binds
B3: Nb E_180 (VHH)
VHH: QVQLQESGGGSVQAGGSLRLSCAASGSIFSVNLMGWYREAPGKATEFVATVTAGGYTNVADSLKDRFTISMDNAKNTVYLQMNNLKPEDTAVYYCNMKSMNPFRRYDVWGQGTQVTVSS
notes: CDR3 identical to that of Nb E_142, 18 amino acid differences from Nb E_142; also called Nb E_180-His6; source: E. coli XL1-Blue (pHEN6c), periplasmic extract

binding result (GST-EPS15 (1-314) [5]): binds
B4: Nb E_3 (VHH)
VHH: QVQLQESGGGLVQAGGSLRLSCAASGSIFSINAMGWYRQAPGKQRELVAAITSGGTTNYADSVKGRFTISRDNAKNTLYLQMNSLKPEDTAVYYCNLGGLRNPFGSWGQGTQVTVSS
notes: NPF tripeptide in CDR3, placed differently from that of Nb E_142; also called Nb E_3-His6; source: E. coli XL1-Blue (pHEN6c), periplasmic extract
